Experimental data from patent US20060240002A1, “Methods of inhibiting angiogenesis-dependent conditions mediated by cryptic epitopes of extracellular matrix components” (priority 2005, published 2006).

Columns and labels:
[1] = target: denatured collagen type-IV; assay: cell-based or functional assay
[2] = tested on: P27^KIP1; assay: Western blot of P27^KIP1 in GL261 glioblastoma cells on denatured collagen; assay type: cell-based; conditions: 24 hours
Procedure: (§1) To examine the effect of CLK-peptide on the expression of cyclin-dependent […] P27^KIP1, B16F10 melanoma and GL261 glioblastoma cells were resuspended in adhesion buffer in the presence or absence of CLK-peptide or control peptide. Cells were added to culture plates coated with denatured collagen and allowed to incubate for 24 hours. Total cell lysates were prepared and the proteins analyzed by Western Blot analysis.

[3] = tested on: B16F10 tumor cells; assay: Real time quantitative RT-PCR of B16F10 cells treated with peptides (Example X); assay type: cell-based, murine; conditions: vs control peptide, Example X written in present tense
Procedure: Relative expression levels of genes are assessed by both real time quantitative RT-PCR and Western Blot analysis. Tumor cells (B16F10) are allowed to interact with denatured collagen type-IV in the presence or absence of the SLK-peptide, CLK-peptide, or control peptide. Whole cell lysates are prepared from the various cell samples.
Real Time quantitative RT-PCR is carried out essentially as described with some modifications (Livak et al., Method 2001, 25:402-408). Total RNA is isolated using RNeasy miniprep columns (Qiagen, Valencia Calif.) according to the manufacturer's instructions. Total RNA (1 μg) is reverse transcribed using 1× Reverse Transcriptase Buffer, MgCl2 (3 mM), dNTP (2.0 mM), RNAse inhibitor (0.2 U/μl), random hexamer primers (0.5 mM), and MMLV reverse transcriptase (0.3 U/μl) in 20 μl reactions using a 3-step cycle (Promega, Madison, Wis.). Real-time fluorescence detection is carried out using an ABI Prism 7900 Sequence Detection System. Reactions are carried out in microAmp 96 well reaction plates. Primers and probes are designed using Primer 3 version 2 and ENSEMBL software (Promega).

[4] = tested on: P21^CIP1; assay: Western blot of P21^CIP1 in M21 cells; assay type: cell-based, human; conditions: 12 hours, 1% serum-containing medium
Procedure: The effect of CLK-peptide on the expression of P21^CIP1 was examined by Western Blot analysis. M21 cells were resuspended in adhesion buffer in the presence or absence of CLK-peptide and allowed to incubate for 12 hours in 1% serum-containing medium. Total cell lysates were prepared and the levels of P21^CIP1 and actin analyzed by Western Blot analysis.

[5] = tested on: B16F10 tumor cells; assay: Differential cDNA array analysis of B16F10 tumor cells treated with peptides (Example X); assay type: cell-based, murine; conditions: 12 hours, Example X written in present tense
Procedure: To evaluate the effect of inhibiting the HUIV26 cryptic collagen epitope using the SLK- and CLK-Peptides, an Affymetrix™-based differential cDNA array analysis is performed using B16F10 tumor cells treated or not treated with SLK- or CLK-peptide. Non-tissue culture treated dishes are coated overnight with 100 μg/ml of denatured collagen IV in PBS. The next morning the plates are washed and incubated in blocking solution (1% BSA in PBS) for approximately 30 minutes. Tumor cells (7×10^6) are resuspended in serum free media and added to each plate in the presence or absence of CLK-Peptide, SLK-Peptide or a control peptide. The cells are allowed to incubate for a total of 12 hours.
Following the 12-hour incubation period, the cells are harvested and the RNA is isolated using both a TRIzol reagent and the Qiagen Rneasy Mini Protocol for RNA Cleanup. After RNA extraction, the amount and quality of RNA is quantified utilizing a spectrophotomer. 5-8 μg of total RNA is utilized to synthesize double-stranded cDNA. The first cDNA strand is obtained using a reaction mixture containing a T7-(dT)24 Primer, 1× First Strand Buffer, 0.1M DTT and 10 mM dNTP mix in addition to the extracted RNA. The tubes are incubated at 42° C. for approximately 1.5 hours. […]

[6] = tested on: B16F10 tumor cells; assay: Western blot of B16F10 cells treated with peptides (Example X); assay type: cell-based, murine; conditions: B16F10 cells on denatured collagen type-IV; vs no treatment or control peptide; Example X written in present tense
Procedure: Western blot analyses indicate a corresponding increase in protein levels. Western blotting was performed as previously described, by coating non-tissue culture treated plates with denatured collagen type-IV (10.0 μg/ml). Equal numbers of tumor cells (B16F10) from sub-confluent cultures are harvested, washed and added to the coated plates in the presence or absence of SLK-peptide, CLK-peptide, or control peptide, and allowed to incubate in 1.0% serum-containing medium. Cells are harvested, washed, and lysed in 1.0% Triton X-100 buffer containing 300 mM NaCl, 50 mM Tris (pH 7.0) and 1× protease inhibitor cocktail. Equal amounts (25 μg/lane) of tumor cell lysates are separated by SDS Page and transferred to nitrocellulose membranes. Membranes are probed by incubation with either polyclonal antibodies directed to P21^CIP1 or Actin (Santa Cruz) as described previously (Brooks et al., Cell 1998, 92: 391-400; Petitclerc et al., Cancer Res. 1999, 59: 2724-2730). Western blots are visualized by a chemiluminesence detection system (Amersham Life Sciences).

[7] = tested on: P27^KIP1; assay: Western blot of P27^KIP1 in B16F10 melanoma cells on denatured collagen; assay type: cell-based, murine; conditions: 24 hours
Procedure: as §1

[8] = target: αvβ3 integrin (human) (UniProt P06756); assay: cell-based or functional assay
Sequence of UniProt P06756 (P06756 31-1048, chain 1 of 2): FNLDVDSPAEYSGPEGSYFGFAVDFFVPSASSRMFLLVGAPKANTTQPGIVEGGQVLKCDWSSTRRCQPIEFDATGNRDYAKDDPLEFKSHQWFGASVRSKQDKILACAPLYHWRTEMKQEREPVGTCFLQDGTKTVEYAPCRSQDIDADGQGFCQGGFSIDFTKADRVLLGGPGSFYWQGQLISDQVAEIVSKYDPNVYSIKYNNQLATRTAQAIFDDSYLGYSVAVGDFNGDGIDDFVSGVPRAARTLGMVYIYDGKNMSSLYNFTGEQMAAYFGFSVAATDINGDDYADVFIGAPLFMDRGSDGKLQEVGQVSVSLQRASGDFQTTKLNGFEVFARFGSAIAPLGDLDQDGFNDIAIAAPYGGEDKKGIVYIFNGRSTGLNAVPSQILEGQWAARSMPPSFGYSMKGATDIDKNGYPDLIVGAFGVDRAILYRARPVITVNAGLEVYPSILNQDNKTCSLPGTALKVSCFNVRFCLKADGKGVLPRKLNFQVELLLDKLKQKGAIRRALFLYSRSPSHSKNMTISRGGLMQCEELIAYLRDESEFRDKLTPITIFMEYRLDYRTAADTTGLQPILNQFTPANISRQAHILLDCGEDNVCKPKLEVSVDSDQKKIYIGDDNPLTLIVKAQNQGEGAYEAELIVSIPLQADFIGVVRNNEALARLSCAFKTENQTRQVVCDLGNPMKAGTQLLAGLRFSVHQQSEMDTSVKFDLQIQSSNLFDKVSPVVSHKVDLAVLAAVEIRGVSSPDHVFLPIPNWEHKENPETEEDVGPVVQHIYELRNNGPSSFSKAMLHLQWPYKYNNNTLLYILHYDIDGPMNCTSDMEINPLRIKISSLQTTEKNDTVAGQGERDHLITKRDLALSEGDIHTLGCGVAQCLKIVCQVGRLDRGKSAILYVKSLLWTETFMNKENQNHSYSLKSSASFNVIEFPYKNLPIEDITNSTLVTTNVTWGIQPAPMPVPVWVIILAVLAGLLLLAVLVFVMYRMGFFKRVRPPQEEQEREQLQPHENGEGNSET
Sequence of UniProt P06756 (P05106 27-788, chain 2 of 2, further chain): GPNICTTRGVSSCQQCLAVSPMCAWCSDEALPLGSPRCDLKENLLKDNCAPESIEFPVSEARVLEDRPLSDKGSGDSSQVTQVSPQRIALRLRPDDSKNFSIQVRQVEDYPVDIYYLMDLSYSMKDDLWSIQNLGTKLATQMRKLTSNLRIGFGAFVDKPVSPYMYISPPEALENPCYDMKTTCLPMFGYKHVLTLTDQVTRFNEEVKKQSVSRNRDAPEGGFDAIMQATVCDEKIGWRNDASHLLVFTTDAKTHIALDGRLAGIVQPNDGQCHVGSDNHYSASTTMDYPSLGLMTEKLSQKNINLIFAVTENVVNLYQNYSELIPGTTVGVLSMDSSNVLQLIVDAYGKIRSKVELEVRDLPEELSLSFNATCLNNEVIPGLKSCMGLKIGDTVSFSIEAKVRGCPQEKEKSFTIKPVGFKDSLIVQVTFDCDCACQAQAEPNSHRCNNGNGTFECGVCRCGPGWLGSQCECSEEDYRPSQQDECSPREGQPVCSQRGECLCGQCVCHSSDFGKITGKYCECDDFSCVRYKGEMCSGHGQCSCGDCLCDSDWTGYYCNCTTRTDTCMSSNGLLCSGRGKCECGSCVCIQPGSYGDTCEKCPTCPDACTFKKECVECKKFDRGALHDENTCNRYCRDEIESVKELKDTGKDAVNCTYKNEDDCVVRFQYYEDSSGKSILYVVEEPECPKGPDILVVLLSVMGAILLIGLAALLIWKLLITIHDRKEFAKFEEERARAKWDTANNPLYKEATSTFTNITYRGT

With Mab HUI77 (antibody) the relative level of P21^CIP1 mRNA in HUVECs (real time RT-PCR) [1] was 10 fold and the relative level of P27^KIP1 mRNA in HUVECs (real time RT-PCR) [1] was > 5 fold.

In the case of “NH2—C-L-K-Q-N-G-G-N—F—S-L-G-COOH (H-CLKQNGGNFSLG-OH) [CLK-peptide]”, the “expression of P27^KIP1 (Western blot)” value [2] is reported as “significant upregulation”, the “relative levels of certain RNAs (RT-PCR)” value [3] is reported as “significant increase in the relative levels of certain RNAs and significant decrease in other RNAs” and the “expression of P21^CIP1 (Western blot)” value [4] is reported as “significant upregulation”. The “expression of certain genes (cDNA array)” value [5] was “significant increase”, the “expression of certain proteins (Western blot)” value [6] was “significant increase in expression of certain proteins and a significant decrease in expression of other proteins” and the “expression of P27^KIP1 (Western blot)” value [7] was “significant upregulation”.

In the case of Mab HUIV26 (antibody), the TSP-1 mRNA levels in HUVECs (real-time PCR) [1] is reported as 6 fold, the adhesion of B16F10 cells to denatured collagen type-IV [1] is reported as 50 % inhibition and the expression of P21^CIP1 protein in B16F10 cells (Western blot) [1] is reported as 2 fold. The migration of B16F10 tumor cells on denatured collagen type-IV [1] was 50 % inhibition, the relative level of P21^CIP1 mRNA in B16F10 cells (real time RT-PCR) [1] was 2.3 fold and the relative levels of IGFBP-4 RNA in M21 cells (RT-PCR) [1] was 115 fold. For the same substance, the relative levels of IGFBP-4 mRNA in HUVECs (RT-PCR) [1] was > 10 fold, the relative levels of Id-1 in M21 cells (real-time PCR) (fold decrease) [1] was 2 and the relative levels of TSP-1 RNA in M21 cells (real-time PCR) [1] was 7 fold.

For Mab LM609 (antibody), the relative level of TSP-1 in M21 cells on denatured collagen type-IV (real-time PCR) [8] was 8 fold.

With “NH2—S-L-K-Q-N-G-G-N—F—S-L-C—COOH (H-SLKQNGGNFSLC-OH) [SLK-peptide]” the “relative levels of certain RNAs (RT-PCR)” value [3] was “significant increase in the relative levels of certain RNAs and significant decrease in other RNAs”, the “expression of certain genes (cDNA array)” value [5] was “significant increase” and the “expression of certain proteins (Western blot)” value [6] was “significant increase in expression of certain proteins and a significant decrease in expression of other proteins”.
